Assay results published in article PMC7363588, “Mapping of the FGF14:Nav1.6 complex interface reveals FLPK as a functionally active peptide modulating excitability” (Physiological Reports, 2020).

B1: CLuc-FGF14 [human] / CD4-Nav1.6 C-tail-NLuc [human] (parent)
chain 1: MVKPVPLFRRTDFKLLLCNHKDLFFLRVSKLLDCFSPKSMWFLWNIFSKGTHMLQCLCGKSLKKNKNPTDPQLKGIVTRLYCRQGYYLQMHPDGALDGTKDDSTNSTLFNLIPVGLRVVAIQGVKTGLYIAMNGEGYLYPSELFTPECKFKESVFENYYVIYSSMLYRQQESGRAWFLGLNKEGQAMKGNRVKKTKPAAHFLPKPLEVAMYREPSLHDVGETVPKPGVTPSKSTSASAIMNGGKPVNKSKTT
chain 2: IVVNMYIAIILENFSVATEESADPLSEDDFETFYEIWEKFDPDATQFIEYCKLADFADALEHPLRVPKPNTIELIAMDLPMVSGDRIHCLDILFAFTKRVLGDSGELDILRQQMEERFVASNPSKVSYEPITTTLRRKQEEVSAVVLQRAYRGHLARRGFICKKTTSNKLENGGTHREKKESTPSTASLPSYDSVTKPEKEKQQRAEEGRRERAKRQKEVRESKC

Variants of: B1
Assay: split-luciferase complementation assay (LCA) in HEK293 cells
Settings: with CD4-Nav1.6 C-tail-NLuc [human], DMSO vehicle control of the same pair = 100, read off a plot

Variant | screen value (% Luminescence (RLU)) (EYYV peptide 50 µM present) | screen value (% Luminescence (RLU)) (FLPK peptide 50 µM present) | screen value (% Luminescence (RLU)) (PLEV peptide 50 µM present)
chain 1 Y158N V160N | 79 | 100 | 72
chain 1 V160A | 93 | 91 | 94
chain 1 Y158A | 100 | 87 | 110
chain 1 Y158A V160A | 100 | 99 | 110
